Measured values published in US20240010720A1 (IOMX THERAPEUTICS, published 2024).

B1: C-021 (Fab format) (Fab, V domains shown)
VH: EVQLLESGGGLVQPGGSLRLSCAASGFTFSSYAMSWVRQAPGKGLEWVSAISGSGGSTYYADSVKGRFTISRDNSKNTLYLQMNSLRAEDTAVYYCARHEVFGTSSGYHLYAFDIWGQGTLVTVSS
VL: DIQMTQSPSSLSASVGDRVTITCRASQSISSYLNWYQQKPGKAPKLLIYAASSLQSGVPSRFSGSGSGTDFTLTISSLQPEDFATYYCQQWSGLPLTFGQGTKVEIK
notes: Fab in E. coli lysate
B2: C-022 (Fab format) (Fab, V domains shown)
VH: EVQLLESGGGLVQPGGSLRLSCAASGFTFSSYAMSWVRQAPGKGLEWVSAISGSGGSTYYADSVKGRFTISRDNSKNTLYLQMNSLRAEDTAAYYCARMAAGASWGTFDYWSQGTLVTVSS
VL: DIQMTQSPSSLSASVGDRVTITCRASQSISSYLNWYQQKPGKAPKLLIYAASSLQSGVPSRFSGSGSGTDFTLTISSLQPEDFATYYCQQRSGSPLTFGQGTKVEIK
notes: Fab in E. coli lysate
B3: C-008 (Fab format) (Fab, V domains shown)
VH: EVQLLESGGGLVQPGGSLRLSCAASGFTFSSYAMSWVRQAPGKGLEWVSAISGSGGSTYYADSVKGRFTISRDNSKNTLYLQMNSLRAEDTAVYYCTTDNGHNRDWGQGTLVTVSS
VL: ASVLTQPPSVSAAPGQKVTISCSGSSSNIGNNYVSWYQQLPGTAPKLLIYDNNKRPSGIPDRFSGSKSGTSATLGITGLQAEDEADYYCGTWTRSSGVFGGGTKLTVL
notes: Fab in E. coli lysate
B4: C-017 (Fab format) (Fab, V domains shown)
VH: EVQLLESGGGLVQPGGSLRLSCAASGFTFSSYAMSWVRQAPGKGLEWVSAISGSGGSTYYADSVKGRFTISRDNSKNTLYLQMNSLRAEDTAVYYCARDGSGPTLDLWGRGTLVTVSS
VL: DIQMTQSPSSLSASVGDRVTITCRASQSISSYLNWYQQKPGKAPKLLIYAASSLQSGVPSRFSGSGSGTDFTLTISSLQPEDFATYYCQQHRYIPPWTFGQGTKVEIK
notes: Fab in E. coli lysate
B5: C-016 (Fab format) (Fab, V domains shown)
VH: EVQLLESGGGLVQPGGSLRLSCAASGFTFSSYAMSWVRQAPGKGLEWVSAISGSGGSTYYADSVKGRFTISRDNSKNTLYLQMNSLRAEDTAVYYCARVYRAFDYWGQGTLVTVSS
VL: ASVLTQPPSVSAAPGQKVTISCSGSSSNIGNNYVSWYQQLPGTAPKLLIYDNNKRPSGIPDRFSGSKSGTSATLGITGLQAEDEADYYCHLYTEAESHWVFGGGTKLTVL
notes: Fab in E. coli lysate
B6: C-026 (Fab format) (Fab, V domains shown)
VH: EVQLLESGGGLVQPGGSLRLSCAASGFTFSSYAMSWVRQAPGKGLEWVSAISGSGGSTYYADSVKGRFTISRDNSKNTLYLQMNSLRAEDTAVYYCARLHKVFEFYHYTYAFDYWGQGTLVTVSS
VL: ASVLTQPPSVSAAPGQKVTISCSGSSSNIGNNYVSWYQQLPGTAPKLLIYDNNKRPSGIPDRFSGSKSGTSATLGITGLQAEDEADYYCASYSSETSGWVFGGGTKLTVL
notes: Fab in E. coli lysate
B7: C-002 (Fab format) (Fab, V domains shown)
VH: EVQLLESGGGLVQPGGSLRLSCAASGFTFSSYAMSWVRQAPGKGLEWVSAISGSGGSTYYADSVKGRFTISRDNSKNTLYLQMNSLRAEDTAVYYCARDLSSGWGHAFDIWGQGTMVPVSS
VL: ASVLTQPPSVSAAPGQKVTISCSGSSSNIGNNYVSWYQQLPGTAPKLLIYDNNKRPSGIPDRFSGSKSGTSATLGITGLQAEDEADYYCLSYTTSEHHLVFGGGTKLTVL
notes: Fab in E. coli lysate
B8: C-005 (Fab format) (Fab, V domains shown)
VH: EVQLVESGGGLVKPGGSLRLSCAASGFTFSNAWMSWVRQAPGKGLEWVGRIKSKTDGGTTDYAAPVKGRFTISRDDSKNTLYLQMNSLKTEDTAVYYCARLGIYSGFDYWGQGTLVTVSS
VL: SYELTQPPSVSVSPGQTASITCSGDKLGDKYASWYQQKPGQSPVLVIYQDSKRPSGIPERFSGSNSGNTATLTISGTQAEDEADYYCHSYTGKPSQVVFGGGTKLTVL
notes: Fab in E. coli lysate
B9: C-009 (Fab format) (Fab, V domains shown)
VH: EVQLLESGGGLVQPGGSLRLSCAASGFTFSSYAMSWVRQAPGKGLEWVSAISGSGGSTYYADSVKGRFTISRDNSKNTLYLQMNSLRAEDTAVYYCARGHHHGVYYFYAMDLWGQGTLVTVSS
VL: SYELTQPPSVSVSPGQTASITCSGDKLGDKYASWYQQKPGQSPVLVIYQDSKRPSGIPERFSGSNSGNTATLTISGTQAEDEADYYCQSYSGSSTLHVFGGGTKLTVL
notes: Fab in E. coli lysate
B10: C-015 (Fab format) (Fab, V domains shown)
VH: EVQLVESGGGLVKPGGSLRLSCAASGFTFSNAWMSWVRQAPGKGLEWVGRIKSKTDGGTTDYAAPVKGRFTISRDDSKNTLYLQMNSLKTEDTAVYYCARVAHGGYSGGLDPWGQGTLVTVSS
VL: SYELTQPPSVSVSPGQTASITCSGDKLGDKYASWYQQKPGQSPVLVIYQDSKRPSGIPERFSGSNSGNTATLTISGTQAEDEADYYCSSTGTAHTLAVFGGGTKLTVL
notes: Fab in E. coli lysate
B11: C-024 (Fab format) (Fab, V domains shown)
VH: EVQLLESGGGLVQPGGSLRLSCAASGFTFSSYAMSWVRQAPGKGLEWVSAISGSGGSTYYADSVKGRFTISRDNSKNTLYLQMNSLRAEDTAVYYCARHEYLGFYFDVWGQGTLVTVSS
VL: SYELTQPPSVSVSPGQTASITCSGDKLGDKYASWYQQKPGQSPVLVIYQDSKRPSGIPERFSGSNSGNTATLTISGTQAEDEADYYCLASHRLTLNYVFGGGTKLTVL
notes: Fab in E. coli lysate
B12: C-020 (Fab format) (Fab, V domains shown)
VH: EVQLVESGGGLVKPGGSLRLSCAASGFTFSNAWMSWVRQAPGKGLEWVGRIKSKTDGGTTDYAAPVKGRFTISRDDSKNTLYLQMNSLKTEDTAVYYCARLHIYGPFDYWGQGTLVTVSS
VL: SYELTQPPSVSVSPGQTASITCSGDKLGDKYASWYQQKPGQSPVLVIYQDSKRPSGIPERFSGSNSGNTATLTISGTQAEDEADYYCLSYLARSGSVVFGGGTKLTVL
notes: Fab in E. coli lysate
B13: C-023 (Fab format) (Fab, V domains shown)
VH: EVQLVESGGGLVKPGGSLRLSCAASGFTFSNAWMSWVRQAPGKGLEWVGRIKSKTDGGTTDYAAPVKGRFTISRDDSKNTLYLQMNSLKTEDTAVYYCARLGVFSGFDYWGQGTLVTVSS
VL: SYELTQPPSVSVSPGQTASITCSGDKLGDKYASWYQQKPGQSPVLVIYQDSKRPSGIPERFSGSNSGNTATLTISGTQAEDEADYYCHTWTHHSLAVVFGGGTKLTVL
notes: Fab in E. coli lysate

How the values were obtained:
[1] = molecular target: T1, Streptavidin (UniProt P22629 37-163, limits assumed); experiment: ELISA, Fab
T1 construct: also called negative antigen; irrelevant antigen
T1 sequence (P22629 37-163 limits assumed): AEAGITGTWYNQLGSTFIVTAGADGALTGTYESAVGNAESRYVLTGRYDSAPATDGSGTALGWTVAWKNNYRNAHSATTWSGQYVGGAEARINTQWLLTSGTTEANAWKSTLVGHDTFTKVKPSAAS

[2] = molecular target: T2, recombinant murine IGSF11 extracellular domain (ECD) (mouse, UniProt P0C673 23-240, biotinylated); experiment: ELISA, Fab
T2 construct: also called Mouse IGSF11; murine ECD-IGSF11
T2 sequence: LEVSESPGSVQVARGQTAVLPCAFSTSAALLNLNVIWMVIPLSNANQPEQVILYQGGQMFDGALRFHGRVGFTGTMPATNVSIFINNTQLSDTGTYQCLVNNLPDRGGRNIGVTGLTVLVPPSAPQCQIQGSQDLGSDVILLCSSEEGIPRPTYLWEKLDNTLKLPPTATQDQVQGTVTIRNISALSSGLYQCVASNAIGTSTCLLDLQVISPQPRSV

Binder | A450 [1] | A450 [2]
B1 | < 0.1 | < 1
B2 | < 0.1 | 
B3 | < 0.1 | 
B4 |  | < 1
B5 | < 0.1 | < 1
B6 | < 0.1 | 
B7 | < 0.1 | < 1
B8 | < 0.1 | 
B9 | < 0.1 | 
B10 | < 0.1 | < 1
B11 |  | < 1
B12 |  | < 1
B13 | < 0.1 | < 1
